# According to US20250295803A1, “5T4 ANTIBODY-DRUG CONJUGATES AND USES THEREOF” (EXELIXIS, INC., priority 2022, published 2025):
# Where a chain is given by its changes, count along the chain named.
# T1: unconjugated human TPBG/5T4 protein with a c-terminal polyhistidine and Avi tag (AcroBiosystems Cat. No. … (human, UniProt Q13641 32-355))
# T1 construct: Bought protein; also called Acro TPGH52E5; Acro Catalog No. TPGH52E; not shown: C-terminal polyhistidine and Avi tag
# T1 sequence: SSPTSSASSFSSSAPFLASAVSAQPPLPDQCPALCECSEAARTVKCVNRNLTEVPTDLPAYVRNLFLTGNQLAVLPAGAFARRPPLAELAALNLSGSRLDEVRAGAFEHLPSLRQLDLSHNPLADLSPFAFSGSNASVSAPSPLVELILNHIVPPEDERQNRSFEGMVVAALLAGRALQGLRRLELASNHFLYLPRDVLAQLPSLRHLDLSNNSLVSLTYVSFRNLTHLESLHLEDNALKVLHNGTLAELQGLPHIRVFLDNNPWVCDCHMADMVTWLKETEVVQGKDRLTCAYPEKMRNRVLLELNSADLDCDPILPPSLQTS
# B1: mAbA17 (antibody, V domains shown)
# VH: EVQLVESGGGLVQPGGSLRLSCAASGFTFSRYWIHWVRQAPGKGLEWVAAIFPYSGSTLYADSVKGRFTISADTSKNTAYLQMNSLRAEDTAVYYCARSPSRSILPSGLDYWGQGTLVTVSS
# VL: DIQMTQSPSSLSASVGDRVTITCRASQSVSSAVAWYQQKPGKAPKLLIYSASSLYSGVPSRFSGSRSGTDFTLTISSLQPEDFATYYCQQGDGSPYTFGQGTKVEIKR
# notes: also called Antibody mAbA17
# B2: mAbA4 (antibody, V domains shown)
# VH: EVQLVESGGGLVQPGGSLRLSCAASGFTFSRYYIHWVRQAPGKGLEWVAFISPGGSYTYYADSVKGRFTISADTSKNTAYLQMNSLRAEDTAVYYCAREYYSMGVLDYWGQGTLVTVSS
# VL: B1 VL with G91A, D92Y, G93E
# notes: also called Antibody mAbA4
# B3: mAbA15 (antibody, V domains shown)
# VH: EVQLVESGGGLVQPGGSLRLSCAASGFTFSSYYIHWVRQAPGKGLEWVAYITSTGSYTEYADSVKGRFTISADTSKNTAYLQMNSLRAEDTAVYYCARYDRSTRYSGLDYWGQGTLVTVSS
# VL: B1 VL with G91A, D92Y, G93A, S94T, Y96V
# notes: also called Antibody mAbA15
# B4: mAbA17: 5T4 antibody comprising VH of SEQ ID NO:62 and VL of SEQ ID NO:63 (antibody, V domains shown)
# VH: B1 VH
# VL: DIQMTQSPSSLSASVGDRVTITCRASQSVSSAVAWYQQKPGKAPKLLIYSASSLYSGVPSRFSGSRSGTDFTLTISSLQPEDFATYYCQQGDGSPYTFGQGTKVEIK
# modifications: Antibody mAbA17 VH Sequence; Antibody mAbA17 VL Sequence
# B5: mAbA4: 5T4 antibody comprising VH of SEQ ID NO:25 and VL of SEQ ID NO:26 (antibody, V domains shown)
# VH: B2 VH
# VL: B4 VL with G91A, D92Y, G93E
# modifications: Antibody mAbA4 VH Sequence; Antibody mAbA4 VL Sequence
# B6: mAbA15: 5T4 antibody comprising VH of SEQ ID NO:44 and VL of SEQ ID NO:45 (antibody, V domains shown)
# VH: B3 VH
# VL: B4 VL with G91A, D92Y, G93A, S94T, Y96V
# modifications: Antibody mAbA15 VH Sequence; Antibody mAbA15 VL Sequence
# Legend:
# [1] = biological target: T1, unconjugated human TPBG/5T4 protein …; test: ELISA on coated human 5T4 His-Avi (Acro TPG-H52E5); antibody condition: pH 8.5 Day 14
# Protocol: (§1) A. Normal Binding Unconjugated antibodies were tested for their ability to bind to human 5T4 (hu5T4) using ELISA. On Day 1, unconjugated human TPBG/5T4 protein with a c-terminal polyhistidine and Avi (AVITAG™) tag (AcroBiosystems (Newark, DE, USA), Cat. No. TPG-H52E5) was diluted 2 μg/mL in PBS, mixed thoroughly, plated 100 μL per well in a 96-well plate (Nunc MAXISORP®) and incubated overnight at 4° C.
# [2] = biological target: T1, unconjugated human TPBG/5T4 protein …; test: ELISA on coated human 5T4 His-Avi (Acro TPG-H52E5); antibody condition: PBS + H2O2 time 0
# Protocol: as §1
# (§2) 3. Oxidative Stress. Several unconjugated antibodies were tested for their ability to bind to 5T4 using ELISA in an oxidative environment. Solutions of 1 mg/mL to 10 mg/mL of antibody in 20 mM citrate/50 mM NaCl at a pH of 5.5 were prepared and stored at 37° C. for 1 to 2 weeks.
# [3] = biological target: T1, unconjugated human TPBG/5T4 protein …; test: ELISA on coated human 5T4 His-Avi (Acro TPG-H52E5); antibody condition: PBS Time 0
# Protocol: as §1, §2
# [4] = biological target: T1, unconjugated human TPBG/5T4 protein …; test: ELISA on coated human 5T4 His-Avi (Acro TPG-H52E5); antibody condition: PBS time 24 hr.
# Protocol: as §1, §2
# [5] = biological target: T1, unconjugated human TPBG/5T4 protein …; test: ELISA on coated human 5T4 His-Avi (Acro TPG-H52E5); antibody condition: pH 5.5 Day 14
# Protocol: as §1
# 2. Low pH Stress Test. Several unconjugated antibodies were tested for their ability to bind to 5T4 using ELISA under acidic (low pH) conditions. […]
# [6] = Standup monolayer adsorption chromatography (SMAC) developability; format: physicochemical; conditions: 1 mg/mL in Dulbecco's PBS pH 7.4
# Protocol: Antibodies that were selected for binding to 5T4, such as those described in Examples 2 and 3, were tested by various methods to assess developability. For example, various chromatographic methods, including size exclusion chromatography (SEC), hydrophobic interaction chromatography (HIC), and standup monolayer adsorption chromatography (SMAC) were employed to assess factors, such as monomer percentage, solubility, and antibody aggregation or precipitation.
# Standup monolayer adsorption chromatography (SMAC) analysis was performed using a 4.6 mm ID×300 mm Zenix SEC 300 column (Sepax Technologies, PN 213300P-4630) with a 4.6 mm×50 mm guard column (PN 213300P-4605) on an Agilent 1100 HPLC. Antibodies were normalized to 1 mg/mL concentration in Dulbecco's PBS (pH 7.4, without Ca^2+/Mg^2+) and clarified via centrifugation to pellet particulates while still retaining soluble aggregates. The mobile phase buffer was Dulbecco's PBS (pH 7.4, without Ca^2+/Mg^2+) at 2× concentration (diluted from 10× stock concentration). For each sample, 10 μL was loaded and isocratically eluted at 0.4 mL/minute over 32 minutes at ambient temperature. Absorbance was monitored at 280 nm. Sample retention time was calculated and compared to a set of standard controls to identify antibodies with increased retention time (increased propensity to form aggregates and/or increased hydrophobic/electrostatic interactions) as the column stationary phase along with mobile phase selection promotes secondary interactions in addition to molecular sizing. Data analysis was performed using Agilent ChemStation B.04.03 SP1.
# MCF-7 cells = test: Cell binding (flow cytometry), MCF-7 cells; format: cell-based
# Protocol: Antibodies that were selected for binding to 5T4, for example, such as those described in Example 2, were evaluated for binding to cells that express 5T4. Cells were harvested at 70-90% confluence on the day of the assay. In a v-bottom 96-well plate (Costar 3897), 100,000 cells per well were incubated with 50 μL per well 8- or 12-point antibody dilution series for 30 minutes at +4° C. After incubation, cells were washed once with PBS by centrifugation at 200×g for 5 minutes. Cells were then incubated with 50 μL per well of Alexa Fluor 488 Goat anti-human IgG Fab (Jackson Immuno Research 109-547-003) at 1:100 dilution for 30 minutes at +4° C. Cells were washed twice with PBS by centrifugation at 200×g for 5 minutes and were acquired on iQue Screener Plus (Sartorius). Mean fluorescence intensities of BL1 (Alexa-Fluor-488) channel were plotted against antibody concentrations to generate a dose response curve and EC50 values.
Molecule,EC50 [1],EC50 [2],EC50 [3],EC50 [4],EC50 [5],developability based on SMAC analysis [6],binding to MCF-7 cells (MCF-7 cells)
B1,0.167 nM,0.188 nM,0.198 nM,0.186 nM,0.153 nM,,
B2,0.136 nM,0.225 nM,0.182 nM,0.2 nM,0.122 nM,,
B3,0.131 nM,0.191 nM,0.229 nM,0.212 nM,0.138 nM,,
B4,,,,,,strong developability,binding
B5,,,,,,strong developability,binding
B6,,,,,,strong developability,binding
